Data reported in the nanobody polyreactivity screen of Harvey et al. (2022).

Experiment: yeast display, Sf9 membrane polyspecificity reagent, FACS + sequencing; frameworks hold sequencing errors
Outline: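 After 36–48 hours of galactose induction, yeast (Saccharomyces cerevisiae BJ5465) displaying a synthetic nanobody library were stained at 4 °C for 1 hour with 10% biotinylated, detergent-solubilized Sf9 membrane reagent. Streptavidin microbeads enriched the stained cells before FACS sorting into low and high (top ~1%) gates on anti-HA and streptavidin fluorescence. Each clone's polyreactivity label reflects its gate of origin.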

Row | Sequence | polyreactivity (PSR sort gate)
1 | QVQLVESGGGLVQAGGSLRLSCAASGSTINYYAMGWYRQAPGKERELVAAISRRSGSTYYADSVKGRFTISRDNAKNTVYLQMNSLKPEDTAVYYCAAGYGGTFNWGQGTQVTVSS | high polyreactivity
2 | QVQLVESGGGLVQAGGSLRLSCAASGSTINYYAMGWYRQAPGKERELVAAISSGTSTYYADSVKGRFTISRDNAKNTVYLQMNSLKPEDTAVYYCARRYYYQYRYDYWGQGTQVTVSS | high polyreactivity
3 | QVQLVESGGGLVQAGGSLRLSCAASGSTIPDNTMGWYRQAPGKEREFVAAISRIGGTYYADSVKGRFTISRDNAKNYVYLQMNSLKPEDTAVYDCNAYPQGLSGRYHGFDYWGQGTQVTVST | low polyreactivity
4 | QVQLVESGGGLVQAGGSLRLSCAASGSTIPNYAKGWYRQAPGKERELVARIRWNGDSTYYADSVKGRFTISRDNAKNTVYLQMNSLKPEDTAVYYCARQGYTLYRTRYRYDYWGQGTQVTASS | high polyreactivity
5 | QVQLVESGGGLVQAGGSLRLSCAASGSTIPRHAMGWYRQAPGKERELVAAITSGGSTNYADSVKGRFTISRDNAKNTVYLQMNSLKPEDTAVYYCAADVIVRVYYYYYVLMDYWGQGTQVTVSS | low polyreactivity
6 | QVQLVESGGGLVQAGGSLRLSCAASGSTIPSYAMGWYRQAPGKERELVASITYSDGTTRYADSVKGRFTISRDNAKNTVYLQMNSLKPEDTAVYYCAKYYYTSIVGYDSWGQGTQVTVSS | low polyreactivity
7 | QVQLVESGGGLVQAGGSLRLSCAASGSTIPSYAMGWYRQAPGKERELVASITYSDGTTRYAYSVKGRFTISRDNAKNTVYLQMNSLKPEDTAVYYCNAVYYREGMDYWGQGTQVTVSS | low polyreactivity
8 | QVQLVESGGGLVQAGGSLRLSCAASGSTIQQYAMGWYRQAPGKEREFVAAISWRGGRTYYADSVKGRFTISRDKAKNTVYLQMNSLKPEDTAVYYCAVDPSIYRLSAYYYDYWGQGTQVTVSS | low polyreactivity
9 | QVQLVESGGGLVQAGGSLRLSCAASGSTIRYYAMGWYRQAPGKERELVAAISYGGGITNYADSVKGRFTISRDNAKNTVYLQMNSLKPEDTAVYCCAAYYRITRYDYWGQGTQVTVSS | high polyreactivity
10 | QVQLVESGGGLVQAGGSLRLSCAASGSTISGNAMGWYRQAPGKERELVAAISQSGGSTYYADSVKGRFTISRDNAKNTVYLQMNSLKPEDTAVYYCNRLYYFLARRMDSWGQGTQVTVSS | high polyreactivity
11 | QVQLVESGGGLVQAGGSLRLSCAASGSTISGYAMGWYRQAPGKERELVATISRGGSTNYADSVKGRFTISRDNAKNTVYLQMNSLKPEDTAVYYCAAQTYVWWVKYHSWGQGTQVTVSS | low polyreactivity
12 | QVQLVESGGGLVQAGGSLRLSCAASGSTISSYAMGWYREAPGKERELVAAIDRSVSTNYADSVKGRFTISRDNAKNTVYLQMNSLKPEDTAVYYCNARHPTDDIVIYDYWGQGTQVTVSS | low polyreactivity
13 | QVQLVESGGGLVQAGGSLRLSCAASGSTIVRYAMGWYRQAPGKERELVASISSGGTTNYADSVNGRFTISRDNAKNTVYLQMNSLKPEDTAVYFCNGTWAYRGHGYWGQGTQVTVSS | low polyreactivity
14 | QVQLVESGGGLVQAGGSLRLSCAASGSTIWIYAMGWYRQAPGKERELVAAINWSGGNTYYADSVKGRFTISRDNAKNTVYLQMNSLKPEDTAVYYCAAAFYIYGVEGDYWGQGTQVTVSS | low polyreactivity
15 | QVQLVESGGGLVQAGGSLRLSCAASGSTIYFNAMGWYRQAPGKERELVAAIDWSGGSTYYADSVKGRFTISRDNAKNTFYLHMNSLKPEDTAVYYCAAAYHYYGNTVGYADYDYWGQGNQVTVSS | low polyreactivity
16 | QVQLVESGGGLVQAGGSLRLSCAASGSTIYFNGMGWYRQAPGKERELVAAITSGGSTDYADSVKGRFTISRDNAKNTVDLQMNSLKPEDTAVYYCAADGEDSLWTGYDYDYWGQGTQVTVSS | low polyreactivity
17 | QVQLVESGGGLVQAGGSLRLSCAASGSTIYFYAMGWYRQAPGKERELVAAISGSGGRTYYADSVKGRFTISRDNAKNTVYLQMNSLKPEDTAVYYCAAEWYPYSDREFLYYYWGQGTQVTVSS | high polyreactivity
18 | QVQLVESGGGLVQAGGSLRLSCAASGSTIYGYAMGWYRQAPGKERELVAAISWSGGRTYYADSVKGRFTISRDNAKNTVYLQMNSLNPVDTAVYYCNTLRRLTGRYGWSSKYYYWGQGTQVTVSS | high polyreactivity
19 | QVQLVESGGGLVQAGGSLRLSCAASGSTIYNNAMGWYRQAPGKERELVAAITRTGGRTYYADSVKGRFTITRDNAKNTVYLQMNSLKREDTAVYYCAATYPSGRDLSFDYWGQGTQVTVSS | high polyreactivity
20 | QVQLVESGGGLVQAGGSLRLSCAASGSTIYRNTMGWYRQAPGKERELVAAISRSGSSTYYADSVKGRFTISRDNAKNTVFLQINSLKPEDTAVYYCAKEGLSYRYYYWGQGTQLTVSS | high polyreactivity
21 | QVQLVESGGGLVQAGGSLRLSCAASGSTIYSYTMGWYRQAPGKERELVAAISRGSSTYYADSVKGRFTISRDNAKNTVYLQMNSLKPEDTAVYYCAAQYRQIYYSYFEYYWGQGTQVTVSS | high polyreactivity
22 | QVQLVESGGGLVQAGGSLRLSCAASGSTLANYAMGWYRQAPGKERELVAAINSGGSTYYADSVKGRFTISRDNAKNTVYLQMNSLKPEDTAVYYCAAETPNYYGRWEPVWHYYWGQGTQVTVSS | high polyreactivity

Row | Sequence | polyreactivity (PSR sort gate)
23 | QVQLVESGGGLVQAGGSLRLSCAASGSTLARYAMGWYRQAPGKERELVAAISWIGGSTYYADSVKGRFTISRDNAKNTVYLQMNSLKPEDTAVYFCAKDTYPWYIRNRYDYWGQGSQVTVSS | high polyreactivity
24 | QVQLVESGGGLVQAGGSLRLSCAASGSTLAVYAMGWYRQAPGKEREFFAAISWSGVSTYYADSVKGRFTISRDNAKNTVYLQMNSLKPEDTAVYYCAAKRVRALYGGSEGGYWGQGTQVTVSS | low polyreactivity
25 | QVQLVESGGGLVQAGGSLRLSCAASGSTLDFYAMGWYRPAPGKERELVAAITWRGGSTYYADSVKGRFTISRDNAKNTVYLQMNCLKPEDTAVYYCAAKSYWLKSQYYSWGQGTQVTVSS | high polyreactivity
26 | QVQLVESGGGLVQAGGSLRLSCAASGSTLDRYVMGWYRQAPGKERELVAAISRNGGSTYYADSVKGRFTISRDNAKNTVYLQMNSLKPEDTAVYYCARYAGFPYTQGDYWGQGTQVTVSS | high polyreactivity
27 | QVQLVESGGGLVQAGGSLRLSCAASGSTLDTNAMGWYRQAPGKERELVAVIDSGGTTNYADSVKGRFTISRDNAKNTVYLQMNSLKPEDTAVYYCAADYAYFGYWFEGYDYWGQGTQVTVSS | low polyreactivity
28 | QVQLVESGGGLVQAGGSLRLSCAASGSTLERNAMGWYRQAPGKERELVAAITSSTGSTYYADSVKGRFTISRDNAKNTVYLQMNSLKPEDTAVYYFAKRVASVQSNRHDYWGQGTQVTVSS | high polyreactivity
29 | QVQLVESGGGLVQAGGSLRLSCAASGSTLFNYTMGWYRQAPGKESELVAAISSGGSTNYADSEKGRFTISRDNAKNTFYLQMNSLKPEDTAVYYCATDHDPWSWYRYDYWGQGTQVTVSS | low polyreactivity
30 | QVQLVESGGGLVQAGGSLRLSCAASGSTLFVNTKGWYRQAPGNERELVAAITSSGGSRYYADSVKGRFTISRDNAKNTVYLQMNSLKPQDTAVYYCAAKELGSPYDYWGQGTQVTVSS | high polyreactivity
31 | QVQLVESGGGLVQAGGSLRLSCAASGSTLFWNAMGWYRKAPGKERELVAVISFSGVSTYYADSVKGRFTISRDNAKNTVYLQLNSLKPEDTAVYYCAAGRCLYYYYGYVDKYGYWGQGTQVTVSS | low polyreactivity
32 | QVQLVESGGGLVQAGGSLRLSCAASGSTLGGNAMGWYRQAPGKERELVAAITSSAGSTYYADSVKGRFTISRDNAKNTVYLQMNSLKPEDTAVYYCATSRDYIGYDYWGQGTQVTVSS | low polyreactivity
33 | QVQLVESGGGLVQAGGSLRLSCAASGSTLGRNAMGWDRQAPGKERELVASITRSGGSTYYADSVKGRFTISRDNAKNTVYLQMNSLKPEDTAVYYCAAEVQGQVGEFDYWGQGTQVTVSS | low polyreactivity
34 | QVQLVESGGGLVQAGGSLRLSCAASGSTLGSNAMGWYRQAPGKERELVAAITWSGGTTYYADSVKGRFTISRDNAKNTVYLQMNSLKPEDTAVYYCATGQSVIYRYEYWGQGTQVSVSS | low polyreactivity
35 | QVQLVESGGGLVQAGGSLRLSCAASGSTLGSNAMGWYRQAPGKERELVAAITWSGGTTYYADSVKGRFTISRDNAKNTVYLQMNSMKPEDSAVYYCNAERGSGVWWKIWGSDPDDYWGQGTQVTVSS | low polyreactivity
36 | QVQLVESGGGLVQAGGSLRLSCAASGSTLGSNARGWYRQAPGKERALVAAITWSGGTTYYADSVKGRFTISRDNAKNPVYLQMNSLKPEDTAVYYCATGQSVIYRYDYWGQGTQVTVSS | low polyreactivity
37 | QVQLVESGGGLVQAGGSLRLSCAASGSTLGVYVMGWYRQAPGKERELVAAISRNGGSTYYADSVKGRFTISRDNAKITVYLQMNSLKPEDTAVYYCAARTVGRKAGFDYWGQGTQVTVSS | high polyreactivity
38 | QVQLVESGGGLVQAGGSLRLSCAASGSTLGYYVMGWYRQAPGKERELVAAITGGGSTDYADSVKGRFTISRDNAKNTVYLQMNSLKPEDTAVDYCAAERTRTGQLFCWGPIYEYWGQGTQVTVSS | low polyreactivity
39 | QVQLVESGGGLVQAGGSLRLSCAASGSTLHEYVMGWYRQAPGKGRELVAAISRRGDSTYYADSVKGRFTISRDNAKNTVYLQMNSLKPEDTAVYYCAARWYWYWSSWDYYSWGQGTQVTVSS | low polyreactivity
40 | QVQLVESGGGLVQAGGSLRLSCAASGSTLHVYVMGWYRQAPGKERELVAAISYSGGITYYADSVKGRFTISRDNAKNTVYLQMNSLKPEDTAVYYCAARIISYRVRGKSRHDYWGQGTQVTVSS | low polyreactivity
41 | QVQLVESGGGLVQAGGSLRLSCAASGSTLHYNAMGWYRQAPGKERELVARISWSGGSTYYADSVKGRFTISRDTAKNTVYLQMNSLKPEDTAVYYCAAPRYGHYTWLYDYWGQGTQVTVSS | low polyreactivity
42 | QVQLVESGGGLVQAGGSLRLSCAASGSTLNSYVMGWYRQAPGKERELVATIRSGSSTNYADSVKGRFTISLDNAKNTVYLQMNSLKPVDTAVYYCSRDDRLAGDYWGQGTQVTVSS | low polyreactivity
43 | QVQLVESGGGLVQAGGSLRLSCAASGSTLPGNVMGWYRQAPGKERELVAAISKRGASTYYADSVKGRFTISRDNAKYTVYLLMNSLKPEDTAVYYCATRTRGSVFRFDYWGQGTQVTVSS | high polyreactivity
